{"source": "paper PMC10764958", "target": "SARS2-NP WT (bacterial) (SARS-CoV-2, UniProt P0DTC9 1-419)", "assay": "MST; MST: PBS with 0.05% Tween, room temperature; […]", "conditions": "protein: recombinant; tags: 2xStrep (C-term); chain copies: 2"}
{"binder": "Cy5-RNA (SARS-CoV-2 RNA) (ssRNA) RNA: CACUCGCUAUGUCGAUAACAACUUCUGUGGCCCUGAUGGCUACCCUCUUGAGUGCAUUAAAGA", "values": [{"measurement": "binding result", "result": "binds"}]}
